Results reported in patent US20150344570A1 (published 2015).

T1: FcγRIIb extracellular domain with C-terminal His tag (human, UniProt P31994 43-217)
T1 construct: extracellular domain; Soluble receptor used as analyte in Biacore; also called FcgRIIb
T1 sequence (looked up): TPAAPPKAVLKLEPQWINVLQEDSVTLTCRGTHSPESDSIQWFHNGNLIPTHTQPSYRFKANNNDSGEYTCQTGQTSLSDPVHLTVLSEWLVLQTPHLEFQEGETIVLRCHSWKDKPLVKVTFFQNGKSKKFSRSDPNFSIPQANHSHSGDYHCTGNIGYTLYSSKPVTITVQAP


Experiments:
[1] = target: T2, FcγRIa extracellular domain with C-terminal His tag (human, UniProt P12314 16-292); test: ratio He/Con_1a : He/Con_2b (FcγRIa over FcγRIIb), SPR (Biacore)
T2 construct: extracellular domain; Soluble receptor used as analyte in Biacore; also called FcgRI

[2] = target: T1, FcγRIIb extracellular domain with …; test: SPR (Biacore), antibody captured, FcγR as analyte; binding relative to GpH7-A5/GpH7-B3/GpL16-k0 = 100
[3] = target: T2, FcγRIa extracellular domain with …; test: as above

T2 sequence (P12314 16-292): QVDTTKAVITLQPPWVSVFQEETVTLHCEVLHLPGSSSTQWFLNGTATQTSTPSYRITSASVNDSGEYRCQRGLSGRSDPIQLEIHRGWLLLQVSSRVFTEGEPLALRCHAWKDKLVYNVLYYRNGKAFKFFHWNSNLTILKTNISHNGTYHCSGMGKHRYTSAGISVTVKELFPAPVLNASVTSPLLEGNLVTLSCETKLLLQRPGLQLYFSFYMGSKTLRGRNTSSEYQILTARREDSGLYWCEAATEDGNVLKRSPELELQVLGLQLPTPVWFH

| Binder | He_1a/2b (Ia/IIb) [1] | He/Con_2b [2] [control = 100] | He/Con_1a [3] [control = 100] |
| --- | --- | --- | --- |
| GpH7-A5/GpH7-B3 variant K326_02A/GpL16-k0 (antibody, human IgG1, kappa, Heterodimerized IgG1, mutation in the GpH7-B3 chain only; also called He Ab) heavy 1: not shown heavy 2: not shown light: DIVMTQSPLSLPVTPGEPASISCQASESLVHSNRNTYLHWYLQKPGQSPQLLIYKVSNRFSGVPDRFSGSGSGTDFTLKISRVEAEDVGVYYCSQNTHVPPTFGQGTKVEIERTVAAPSVFIFPPSDEQLKSGTASVVCLLNNFYPREAKVQWKVDNALQSGNSQESVTEQDSKDSTYSLSSTLTLSKADYEKHKVYACEVTHQGLSSPVTKSFNRGEC | 0.73 | 139 | 102 |
| GpH7-A5/GpH7-B3 variant K326_09D/GpL16-k0 (antibody, human IgG1, kappa, Heterodimerized IgG1, mutation in the GpH7-B3 chain only; also called He Ab) heavy 1: not shown heavy 2: not shown light: DIVMTQSPLSLPVTPGEPASISCQASESLVHSNRNTYLHWYLQKPGQSPQLLIYKVSNRFSGVPDRFSGSGSGTDFTLKISRVEAEDVGVYYCSQNTHVPPTFGQGTKVEIERTVAAPSVFIFPPSDEQLKSGTASVVCLLNNFYPREAKVQWKVDNALQSGNSQESVTEQDSKDSTYSLSSTLTLSKADYEKHKVYACEVTHQGLSSPVTKSFNRGEC | 0.54 | 193 | 103 |
| GpH7-A5/GpH7-B3 variant K326_03V/GpL16-k0 (antibody, human IgG1, kappa, Heterodimerized IgG1, mutation in the GpH7-B3 chain only; also called He Ab) heavy 1: not shown heavy 2: not shown light: DIVMTQSPLSLPVTPGEPASISCQASESLVHSNRNTYLHWYLQKPGQSPQLLIYKVSNRFSGVPDRFSGSGSGTDFTLKISRVEAEDVGVYYCSQNTHVPPTFGQGTKVEIERTVAAPSVFIFPPSDEQLKSGTASVVCLLNNFYPREAKVQWKVDNALQSGNSQESVTEQDSKDSTYSLSSTLTLSKADYEKHKVYACEVTHQGLSSPVTKSFNRGEC | 0.58 | 175 | 102 |
| GpH7-A5/GpH7-B3 variant K326_04F/GpL16-k0 (antibody, human IgG1, kappa, Heterodimerized IgG1, mutation in the GpH7-B3 chain only; also called He Ab) heavy 1: not shown heavy 2: not shown light: DIVMTQSPLSLPVTPGEPASISCQASESLVHSNRNTYLHWYLQKPGQSPQLLIYKVSNRFSGVPDRFSGSGSGTDFTLKISRVEAEDVGVYYCSQNTHVPPTFGQGTKVEIERTVAAPSVFIFPPSDEQLKSGTASVVCLLNNFYPREAKVQWKVDNALQSGNSQESVTEQDSKDSTYSLSSTLTLSKADYEKHKVYACEVTHQGLSSPVTKSFNRGEC | 0.66 | 155 | 102 |
| GpH7-A5/GpH7-B3 variant K326_07I/GpL16-k0 (antibody, human IgG1, kappa, Heterodimerized IgG1, mutation in the GpH7-B3 chain only; also called He Ab) heavy 1: not shown heavy 2: not shown light: DIVMTQSPLSLPVTPGEPASISCQASESLVHSNRNTYLHWYLQKPGQSPQLLIYKVSNRFSGVPDRFSGSGSGTDFTLKISRVEAEDVGVYYCSQNTHVPPTFGQGTKVEIERTVAAPSVFIFPPSDEQLKSGTASVVCLLNNFYPREAKVQWKVDNALQSGNSQESVTEQDSKDSTYSLSSTLTLSKADYEKHKVYACEVTHQGLSSPVTKSFNRGEC | 0.51 | 199 | 101 |
| GpH7-A5/GpH7-B3 variant H268_09D/GpL16-k0 (antibody, human IgG1, kappa, Heterodimerized IgG1, mutation in the GpH7-B3 chain only; also called He Ab) heavy 1: not shown heavy 2: not shown light: DIVMTQSPLSLPVTPGEPASISCQASESLVHSNRNTYLHWYLQKPGQSPQLLIYKVSNRFSGVPDRFSGSGSGTDFTLKISRVEAEDVGVYYCSQNTHVPPTFGQGTKVEIERTVAAPSVFIFPPSDEQLKSGTASVVCLLNNFYPREAKVQWKVDNALQSGNSQESVTEQDSKDSTYSLSSTLTLSKADYEKHKVYACEVTHQGLSSPVTKSFNRGEC | 0.46 | 239 | 110 |
| GpH7-A5/GpH7-B3 variant K326_08L/GpL16-k0 (antibody, human IgG1, kappa, Heterodimerized IgG1, mutation in the GpH7-B3 chain only; also called He Ab) heavy 1: not shown heavy 2: not shown light: DIVMTQSPLSLPVTPGEPASISCQASESLVHSNRNTYLHWYLQKPGQSPQLLIYKVSNRFSGVPDRFSGSGSGTDFTLKISRVEAEDVGVYYCSQNTHVPPTFGQGTKVEIERTVAAPSVFIFPPSDEQLKSGTASVVCLLNNFYPREAKVQWKVDNALQSGNSQESVTEQDSKDSTYSLSSTLTLSKADYEKHKVYACEVTHQGLSSPVTKSFNRGEC | 0.57 | 177 | 100 |
| GpH7-A5/GpH7-B3 variant H268_02A/GpL16-k0 (antibody, human IgG1, kappa, Heterodimerized IgG1, mutation in the GpH7-B3 chain only; also called He Ab) heavy 1: not shown heavy 2: not shown light: DIVMTQSPLSLPVTPGEPASISCQASESLVHSNRNTYLHWYLQKPGQSPQLLIYKVSNRFSGVPDRFSGSGSGTDFTLKISRVEAEDVGVYYCSQNTHVPPTFGQGTKVEIERTVAAPSVFIFPPSDEQLKSGTASVVCLLNNFYPREAKVQWKVDNALQSGNSQESVTEQDSKDSTYSLSSTLTLSKADYEKHKVYACEVTHQGLSSPVTKSFNRGEC | 0.65 | 167 | 109 |
| GpH7-A5/GpH7-B3 variant H268_10E/GpL16-k0 (antibody, human IgG1, kappa, Heterodimerized IgG1, mutation in the GpH7-B3 chain only; also called He Ab) heavy 1: not shown heavy 2: not shown light: DIVMTQSPLSLPVTPGEPASISCQASESLVHSNRNTYLHWYLQKPGQSPQLLIYKVSNRFSGVPDRFSGSGSGTDFTLKISRVEAEDVGVYYCSQNTHVPPTFGQGTKVEIERTVAAPSVFIFPPSDEQLKSGTASVVCLLNNFYPREAKVQWKVDNALQSGNSQESVTEQDSKDSTYSLSSTLTLSKADYEKHKVYACEVTHQGLSSPVTKSFNRGEC | 0.48 | 230 | 111 |
| GpH7-A5/GpH7-B3 variant H268_13S/GpL16-k0 (antibody, human IgG1, kappa, Heterodimerized IgG1, mutation in the GpH7-B3 chain only; also called He Ab) heavy 1: not shown heavy 2: not shown light: DIVMTQSPLSLPVTPGEPASISCQASESLVHSNRNTYLHWYLQKPGQSPQLLIYKVSNRFSGVPDRFSGSGSGTDFTLKISRVEAEDVGVYYCSQNTHVPPTFGQGTKVEIERTVAAPSVFIFPPSDEQLKSGTASVVCLLNNFYPREAKVQWKVDNALQSGNSQESVTEQDSKDSTYSLSSTLTLSKADYEKHKVYACEVTHQGLSSPVTKSFNRGEC | 0.68 | 160 | 109 |
| GpH7-A5/GpH7-B3 variant K326_10E/GpL16-k0 (antibody, human IgG1, kappa, Heterodimerized IgG1, mutation in the GpH7-B3 chain only; also called He Ab) heavy 1: not shown heavy 2: not shown light: DIVMTQSPLSLPVTPGEPASISCQASESLVHSNRNTYLHWYLQKPGQSPQLLIYKVSNRFSGVPDRFSGSGSGTDFTLKISRVEAEDVGVYYCSQNTHVPPTFGQGTKVEIERTVAAPSVFIFPPSDEQLKSGTASVVCLLNNFYPREAKVQWKVDNALQSGNSQESVTEQDSKDSTYSLSSTLTLSKADYEKHKVYACEVTHQGLSSPVTKSFNRGEC | 0.52 | 200 | 104 |
| GpH7-A5/GpH7-B3 variant H268_18N/GpL16-k0 (antibody, human IgG1, kappa, Heterodimerized IgG1, mutation in the GpH7-B3 chain only; also called He Ab) heavy 1: not shown heavy 2: not shown light: DIVMTQSPLSLPVTPGEPASISCQASESLVHSNRNTYLHWYLQKPGQSPQLLIYKVSNRFSGVPDRFSGSGSGTDFTLKISRVEAEDVGVYYCSQNTHVPPTFGQGTKVEIERTVAAPSVFIFPPSDEQLKSGTASVVCLLNNFYPREAKVQWKVDNALQSGNSQESVTEQDSKDSTYSLSSTLTLSKADYEKHKVYACEVTHQGLSSPVTKSFNRGEC | 0.69 | 156 | 108 |
| GpH7-A5/GpH7-B3 variant K326_06M/GpL16-k0 (antibody, human IgG1, kappa, Heterodimerized IgG1, mutation in the GpH7-B3 chain only; also called He Ab) heavy 1: not shown heavy 2: not shown light: DIVMTQSPLSLPVTPGEPASISCQASESLVHSNRNTYLHWYLQKPGQSPQLLIYKVSNRFSGVPDRFSGSGSGTDFTLKISRVEAEDVGVYYCSQNTHVPPTFGQGTKVEIERTVAAPSVFIFPPSDEQLKSGTASVVCLLNNFYPREAKVQWKVDNALQSGNSQESVTEQDSKDSTYSLSSTLTLSKADYEKHKVYACEVTHQGLSSPVTKSFNRGEC | 0.62 | 165 | 102 |
| GpH7-A5/GpH7-B3 variant H268_01G/GpL16-k0 (antibody, human IgG1, kappa, Heterodimerized IgG1, mutation in the GpH7-B3 chain only; also called He Ab) heavy 1: not shown heavy 2: not shown light: DIVMTQSPLSLPVTPGEPASISCQASESLVHSNRNTYLHWYLQKPGQSPQLLIYKVSNRFSGVPDRFSGSGSGTDFTLKISRVEAEDVGVYYCSQNTHVPPTFGQGTKVEIERTVAAPSVFIFPPSDEQLKSGTASVVCLLNNFYPREAKVQWKVDNALQSGNSQESVTEQDSKDSTYSLSSTLTLSKADYEKHKVYACEVTHQGLSSPVTKSFNRGEC | 0.75 | 144 | 107 |
